# Laboratory results as given in publication PMC6092944.
# Molecular target: His6-MBP-PadeB1
# Assay: fluorescence polarisation
row,Ki [nM],Substance
1,137,"PadeA precursor peptide, wild type (WT)"
2,127,PadeA variant A1G (peptide)
3,476,PadeA variant P–12A (peptide)
4,1340,PadeA variant P–12A/Y–15A (peptide)
5,152,PadeA variant T–2A (peptide)
6,1180,PadeA variant Y–15A (peptide)
7,120,PadeA(−19 to −7) peptide

# Molecular target: His6-MBP-PadeB1
# Assay: fluorescence polarisation
# Remark: another data set of the same source
Kd [nM],Ki [nM],Substance
69,–,Fl-PadeA (PadeA labelled with fluorescein-5-maleimide) (peptide)
–,119,PadeA(−19 to −7) peptide
